B1: GST-NONO fragment F4 (229-471 aa) (domain or fragment, UniProt Q15233 229-471, looked up)
chain: QLDDEEGLPEKLVIKNQQFHKEREQPPRFAQPGSFEYEYAMRWKALIEMEKQQQDQVDRNIKEAREKLEMEMEAARHEHQVMLMRQDLMRRQEELRRMEELHNQEVQKRKQLELRQEEERRRREEEMRRQQEEMMRRQQEGFKGTFPDAREQEIRMGQMAMGGAMGINNRGAMPPAPVPAGTPAPPGPATMMPDGTLGLTPPTTERFGQAATMEGIGAIGGTPPAFNRAAPGAEFAPNKRRRY
notes: NONO residues 229-471, from the pGEX-6P-1 plasmid; also called GST-NONO F4; source: E. coli BL21, purified (glutathione S-transferase beads)
B2: His-NONO fusion protein (natural protein, UniProt Q15233 1-471, looked up)
chain: MQSNKTFNLEKQNHTPRKHHQHHHQQQHHQQQQQQPPPPPIPANGQQASSQNEGLTIDLKNFRKPGEKTFTQRSRLFVGNLPPDITEEEMRKLFEKYGKAGEVFIHKDKGFGFIRLETRTLAEIAKVELDNMPLRGKQLRVRFACHSASLTVRNLPQYVSNELLEEAFSVFGQVERAVVIVDDRGRPSGKGIVEFSGKPAARKALDRCSEGSFLLTTFPRPVTVEPMDQLDDEEGLPEKLVIKNQQFHKEREQPPRFAQPGSFEYEYAMRWKALIEMEKQQQDQVDRNIKEAREKLEMEMEAARHEHQVMLMRQDLMRRQEELRRMEELHNQEVQKRKQLELRQEEERRRREEEMRRQQEEMMRRQQEGFKGTFPDAREQEIRMGQMAMGGAMGINNRGAMPPAPVPAGTPAPPGPATMMPDGTLGLTPPTTERFGQAATMEGIGAIGGTPPAFNRAAPGAEFAPNKRRRY
notes: NONO, from the pET28a plasmid; source: E. coli BL21, purified (nickel-nitrilotriacetic acid beads)
B3: full-length GST-NONO (natural protein, UniProt Q15233 1-471, looked up)
chain: B2 chain
notes: NONO, full length (fragments run to residue 471), from the pGEX-6P-1 plasmid; also called GST-NONO fusion protein; source: E. coli BL21, purified (glutathione S-transferase beads)
B4: GST-PKM2 fragment F4 (390-531 aa) (domain or fragment, UniProt P14618 390-531, looked up)
chain: YHLQLFEELRRLAPITSDPTEATAVGAVEASFKCCSGAIIVLTKSGRSAHQVARYRPRAPIIAVTRNPQTARQAHLYRGIFPVLCKDPVQEAWAEDVDLRVNFAMNVGKARGFFKKGDVVIVLTGWRPGSGFTNTMRVVPVP
notes: PKM2 residues 390-531, from the pGEX-6P-1 plasmid; also called GST-PKM2 F4; source: E. coli BL21, purified (glutathione S-transferase beads)

Holding throughout (settings): both partners purified
One assay addresses T1, His-PKM2 fusion protein (UniProt P14618 1-531).
T1 construct: PKM2, from the pET28a plasmid; source: E. coli BL21, purified (nickel-nitrilotriacetic acid beads)
Kind of assay: pull-down; GST pull-down: GST-NONO (full length or fragments) on glutathione-Sepharose beads mixed with His-PKM2 for 4 h at 4 °C, five washes, western blot. (In general: In western blotting, separated proteins are transferred to a membrane and probed.)

For a further assay, the target named is T2, GST-PKM2-D476A mutant (UniProt P14618 1-531, D476A).
T2 construct: PKM2 point mutant, from the pGEX-6P-1 plasmid; Probably made on the full-length GST-PKM2; source: E. coli BL21, purified (glutathione S-transferase beads)
Put plainly: pull-down; GST pull-down: GST-PKM2 (full length, fragments or mutants) incubated with His-NONO at 4 °C for 4 h, five washes, western blot.

In a further assay the target is T3, GST-PKM2-D487A mutant (UniProt P14618 1-531, D487A).
T3 construct: PKM2 point mutant, from the pGEX-6P-1 plasmid; Probably made on the full-length GST-PKM2; source: E. coli BL21, purified (glutathione S-transferase beads)
The description is as above.

Assay [1] has as its target T4, full-length GST-PKM2, wild type (UniProt P14618 1-531).
T4 construct: PKM2, full length (fragments run to residue 531), from the pGEX-6P-1 plasmid; also called GST-PKM2 WT; PKM2-WT; source: E. coli BL21, purified (glutathione S-transferase beads)
The assay is described as above.

The next assay addresses T5, GST-PKM2-R400A mutant (UniProt P14618 1-531, R400A).
T5 construct: PKM2 point mutant, from the pGEX-6P-1 plasmid; Probably made on the full-length GST-PKM2; source: E. coli BL21, purified (glutathione S-transferase beads)
The assay is described as above.

In the next assay the target is T6, GST-PKM2-R526A mutant (UniProt P14618 1-531, R526A).
T6 construct: PKM2 point mutant, from the pGEX-6P-1 plasmid; Probably made on the full-length GST-PKM2; source: E. coli BL21, purified (glutathione S-transferase beads)
T6 sequence (P14618 whole entry R526A): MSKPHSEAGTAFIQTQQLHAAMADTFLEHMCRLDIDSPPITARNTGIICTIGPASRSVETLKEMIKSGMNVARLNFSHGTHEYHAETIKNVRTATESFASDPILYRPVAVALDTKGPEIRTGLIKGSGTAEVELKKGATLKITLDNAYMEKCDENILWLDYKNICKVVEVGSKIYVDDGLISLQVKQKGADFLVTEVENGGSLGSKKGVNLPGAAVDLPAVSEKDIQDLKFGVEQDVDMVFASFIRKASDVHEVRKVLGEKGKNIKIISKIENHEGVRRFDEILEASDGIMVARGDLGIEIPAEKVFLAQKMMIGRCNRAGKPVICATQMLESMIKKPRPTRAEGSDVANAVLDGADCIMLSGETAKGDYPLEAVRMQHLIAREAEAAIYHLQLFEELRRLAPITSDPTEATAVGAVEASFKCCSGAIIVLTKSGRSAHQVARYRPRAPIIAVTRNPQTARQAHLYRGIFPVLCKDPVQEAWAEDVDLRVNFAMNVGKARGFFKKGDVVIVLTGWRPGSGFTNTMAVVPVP
Described as above.

Another assay has as its target T7, GST-PKM2-S406A mutant (UniProt P14618 1-531, S406A).
T7 construct: Probably made on the full-length GST-PKM2; source: E. coli BL21, purified (glutathione S-transferase beads)
The description is as above.

The target in another assay is T8, GST-PKM2-W515A mutant (UniProt P14618 1-531, W515A).
T8 construct: PKM2 point mutant, from the pGEX-6P-1 plasmid; Probably made on the full-length GST-PKM2; source: E. coli BL21, purified (glutathione S-transferase beads)
T8 sequence (P14618 whole entry W515A): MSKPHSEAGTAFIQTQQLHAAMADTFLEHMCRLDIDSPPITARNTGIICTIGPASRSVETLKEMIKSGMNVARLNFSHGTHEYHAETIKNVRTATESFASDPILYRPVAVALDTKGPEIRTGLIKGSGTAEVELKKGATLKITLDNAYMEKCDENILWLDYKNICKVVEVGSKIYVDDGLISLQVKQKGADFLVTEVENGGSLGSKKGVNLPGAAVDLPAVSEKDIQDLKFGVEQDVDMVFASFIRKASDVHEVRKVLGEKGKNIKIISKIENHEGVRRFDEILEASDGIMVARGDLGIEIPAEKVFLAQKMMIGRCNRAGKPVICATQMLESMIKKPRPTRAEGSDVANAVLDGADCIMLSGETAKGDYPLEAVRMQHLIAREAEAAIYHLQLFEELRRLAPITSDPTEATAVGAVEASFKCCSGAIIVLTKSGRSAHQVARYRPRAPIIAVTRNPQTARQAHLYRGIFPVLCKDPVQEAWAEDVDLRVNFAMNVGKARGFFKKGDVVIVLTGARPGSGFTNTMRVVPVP
The description is as above.

The next assay addresses T9, GST-PKM2-T412A mutant (UniProt P14618 1-531, T412A).
T9 construct: PKM2 point mutant, from the pGEX-6P-1 plasmid; Probably made on the full-length GST-PKM2; source: E. coli BL21, purified (glutathione S-transferase beads)
The description is as above.

For the assay “His-NONO fusion protein”, the target named is B2. Described as above.

Regarding B1, in the assay with His-PKM2 fusion protein, the binding result is “binds”.
On to B2, for which the binding result (with GST-PKM2-D476A mutant; with GST-PKM2-D487A mutant; in [1]; in the assay with GST-PKM2-R400A mutant; with GST-PKM2-R526A mutant; with GST-PKM2-S406A mutant) was “binds” in each case. The binding result with GST-PKM2-W515A mutant and in the assay with GST-PKM2-T412A mutant was “binds” in each case.
As for B3, the binding result with His-PKM2 fusion protein is “binds”.
Take B4: in the assay with His-NONO fusion protein, the binding result is “binds”.

Values taken from article PMC11892261, “NONO interacts with nuclear PKM2 and directs histone H3 phosphorylation to promote triple-negative breast cancer metastasis” (Journal of Experimental & Clinical Cancer Research : CR, 2025).
